Reference: US10941182 (Amgen, dated 2021)
Starred links: 1 amine or outer side, 2 acyl side, 3 side chain; linkers in the order of their positions; H or OH if unused. Non-standard residues stand in square brackets, D forms with d. Primed or numbered codes have the meaning given here. *: point of attachment. dBip = N[C@H](Cc1ccc(-c2ccccc2)cc1)C(=O)O; Oic = O=C(O)[C@@H]1C[C@@H]2CCCC[C@@H]2N1; Phe(4-Cl) = N[C@@H](Cc1ccc(Cl)cc1)C(=O)O; dPhe(4-Cl) = N[C@H](Cc1ccc(Cl)cc1)C(=O)O; Heptadecanoyl = CCCCCCCCCCCCCCCCC(=O)*; Phe(4-I) = N[C@@H](Cc1ccc(I)cc1)C(=O)O; γGlu = O=C(O)[C@H](CCC(=O)[*:2])N[*:1]; NMeR = CN[C@@H](CCCNC(=N)N)C(=O)O; Tridecanoyl = CCCCCCCCCCCCC(=O)*; hArg = N=C(N)NCCCC[C@H](N)C(=O)O; Tic = O=C(O)[C@@H]1Cc2ccccc2CN1; Cha = N[C@@H](CC1CCCCC1)C(=O)O; NMeL = CN[C@@H](CC(C)C)C(=O)O; Nle = CCCC[C@H](N)C(=O)O; Pip′ = not defined here; AEEA = NCCOCCOCC(=O)O

B1: apelin polypeptide SEQ ID NO: 229 (peptide)
peptide: Tridecanoyl-[γGlu][AEEA][AEEA][hArg]Q[dR]P[NMeR][Cha]SHKG[Oic][Nle]P[Phe(4-Cl)]-OH
SMILES: CCCCCCCCCCCCC(=O)N[C@@H](CCC(=O)NCCOCCOCC(=O)NCCOCCOCC(=O)N[C@@H](CCCCNC(=N)N)C(=O)N[C@@H](CCC(N)=O)C(=O)N[C@H](CCCNC(=N)N)C(=O)N1CCC[C@H]1C(=O)N(C)[C@@H](CCCNC(=N)N)C(=O)N[C@@H](CC1CCCCC1)C(=O)N[C@@H](CO)C(=O)N[C@@H](Cc1c[nH]cn1)C(=O)N[C@@H](CCCCN)C(=O)NCC(=O)N1[C@H](C(=O)N[C@@H](CCCC)C(=O)N2CCC[C@H]2C(=O)N[C@@H](Cc2ccc(Cl)cc2)C(=O)O)C[C@@H]2CCCC[C@@H]21)C(=O)O
B2: apelin polypeptide SEQ ID NO: 237 (peptide)
peptide: Heptadecanoyl-[γGlu][AEEA][AEEA][dQ][hArg]P[NMeR][Cha]SHKG[Oic][Nle]P[dPhe(4-Cl)]-OH
SMILES: CCCCCCCCCCCCCCCCC(=O)N[C@@H](CCC(=O)NCCOCCOCC(=O)NCCOCCOCC(=O)N[C@H](CCC(N)=O)C(=O)N[C@@H](CCCCNC(=N)N)C(=O)N1CCC[C@H]1C(=O)N(C)[C@@H](CCCNC(=N)N)C(=O)N[C@@H](CC1CCCCC1)C(=O)N[C@@H](CO)C(=O)N[C@@H](Cc1c[nH]cn1)C(=O)N[C@@H](CCCCN)C(=O)NCC(=O)N1[C@H](C(=O)N[C@@H](CCCC)C(=O)N2CCC[C@H]2C(=O)N[C@H](Cc2ccc(Cl)cc2)C(=O)O)C[C@@H]2CCCC[C@@H]21)C(=O)O
B3: apelin polypeptide SEQ ID NO: 243 (peptide)
peptide: Heptadecanoyl-[γGlu][AEEA][AEEA][hArg]Q[dR]P[NMeR][Cha]SHKG[Oic][Nle]P[Tic]-OH
SMILES: CCCCCCCCCCCCCCCCC(=O)N[C@@H](CCC(=O)NCCOCCOCC(=O)NCCOCCOCC(=O)N[C@@H](CCCCNC(=N)N)C(=O)N[C@@H](CCC(N)=O)C(=O)N[C@H](CCCNC(=N)N)C(=O)N1CCC[C@H]1C(=O)N(C)[C@@H](CCCNC(=N)N)C(=O)N[C@@H](CC1CCCCC1)C(=O)N[C@@H](CO)C(=O)N[C@@H](Cc1c[nH]cn1)C(=O)N[C@@H](CCCCN)C(=O)NCC(=O)N1[C@H](C(=O)N[C@@H](CCCC)C(=O)N2CCC[C@H]2C(=O)N2Cc3ccccc3C[C@H]2C(=O)O)C[C@@H]2CCCC[C@@H]21)C(=O)O
B4: apelin polypeptide SEQ ID NO: 242 (peptide)
peptide: Heptadecanoyl-[γGlu][AEEA][AEEA][hArg][dQ][hArg]P[NMeR][Cha]SHKG[Oic][Nle]P[dPhe(4-Cl)]-OH
SMILES: CCCCCCCCCCCCCCCCC(=O)N[C@@H](CCC(=O)NCCOCCOCC(=O)NCCOCCOCC(=O)N[C@@H](CCCCNC(=N)N)C(=O)N[C@H](CCC(N)=O)C(=O)N[C@@H](CCCCNC(=N)N)C(=O)N1CCC[C@H]1C(=O)N(C)[C@@H](CCCNC(=N)N)C(=O)N[C@@H](CC1CCCCC1)C(=O)N[C@@H](CO)C(=O)N[C@@H](Cc1c[nH]cn1)C(=O)N[C@@H](CCCCN)C(=O)NCC(=O)N1[C@H](C(=O)N[C@@H](CCCC)C(=O)N2CCC[C@H]2C(=O)N[C@H](Cc2ccc(Cl)cc2)C(=O)O)C[C@@H]2CCCC[C@@H]21)C(=O)O
B5: apelin polypeptide SEQ ID NO: 225 (peptide)
peptide: Tridecanoyl-[γGlu][AEEA][AEEA]Q[hArg]P[dR][NMeL]SHKG[Oic][Nle]P[Phe(4-Cl)]-OH
SMILES: CCCCCCCCCCCCC(=O)N[C@@H](CCC(=O)NCCOCCOCC(=O)NCCOCCOCC(=O)N[C@@H](CCC(N)=O)C(=O)N[C@@H](CCCCNC(=N)N)C(=O)N1CCC[C@H]1C(=O)N[C@H](CCCNC(=N)N)C(=O)N(C)[C@@H](CC(C)C)C(=O)N[C@@H](CO)C(=O)N[C@@H](Cc1c[nH]cn1)C(=O)N[C@@H](CCCCN)C(=O)NCC(=O)N1[C@H](C(=O)N[C@@H](CCCC)C(=O)N2CCC[C@H]2C(=O)N[C@@H](Cc2ccc(Cl)cc2)C(=O)O)C[C@@H]2CCCC[C@@H]21)C(=O)O
B6: apelin polypeptide SEQ ID NO: 238 (peptide)
peptide: Heptadecanoyl-[γGlu][AEEA][AEEA]Q[dR]P[NMeR][Cha]SHKG[Oic][Nle]P[Tic]-OH
SMILES: CCCCCCCCCCCCCCCCC(=O)N[C@@H](CCC(=O)NCCOCCOCC(=O)NCCOCCOCC(=O)N[C@@H](CCC(N)=O)C(=O)N[C@H](CCCNC(=N)N)C(=O)N1CCC[C@H]1C(=O)N(C)[C@@H](CCCNC(=N)N)C(=O)N[C@@H](CC1CCCCC1)C(=O)N[C@@H](CO)C(=O)N[C@@H](Cc1c[nH]cn1)C(=O)N[C@@H](CCCCN)C(=O)NCC(=O)N1[C@H](C(=O)N[C@@H](CCCC)C(=O)N2CCC[C@H]2C(=O)N2Cc3ccccc3C[C@H]2C(=O)O)C[C@@H]2CCCC[C@@H]21)C(=O)O
B7: apelin polypeptide SEQ ID NO: 228 (peptide)
peptide: Tridecanoyl-[γGlu][AEEA][AEEA]Q[hArg]P[dR][Cha]SHKG[Oic][Nle]P[Phe(4-Cl)]-OH
SMILES: CCCCCCCCCCCCC(=O)N[C@@H](CCC(=O)NCCOCCOCC(=O)NCCOCCOCC(=O)N[C@@H](CCC(N)=O)C(=O)N[C@@H](CCCCNC(=N)N)C(=O)N1CCC[C@H]1C(=O)N[C@H](CCCNC(=N)N)C(=O)N[C@@H](CC1CCCCC1)C(=O)N[C@@H](CO)C(=O)N[C@@H](Cc1c[nH]cn1)C(=O)N[C@@H](CCCCN)C(=O)NCC(=O)N1[C@H](C(=O)N[C@@H](CCCC)C(=O)N2CCC[C@H]2C(=O)N[C@@H](Cc2ccc(Cl)cc2)C(=O)O)C[C@@H]2CCCC[C@@H]21)C(=O)O
B8: apelin polypeptide SEQ ID NO: 226 (peptide)
peptide: Tridecanoyl-[γGlu][AEEA][AEEA]Q[hArg]P[dR][NMeL]SHKG[Oic][Phe(4-I)]P[Phe(4-Cl)]-OH
SMILES: CCCCCCCCCCCCC(=O)N[C@@H](CCC(=O)NCCOCCOCC(=O)NCCOCCOCC(=O)N[C@@H](CCC(N)=O)C(=O)N[C@@H](CCCCNC(=N)N)C(=O)N1CCC[C@H]1C(=O)N[C@H](CCCNC(=N)N)C(=O)N(C)[C@@H](CC(C)C)C(=O)N[C@@H](CO)C(=O)N[C@@H](Cc1c[nH]cn1)C(=O)N[C@@H](CCCCN)C(=O)NCC(=O)N1[C@H](C(=O)N[C@@H](Cc2ccc(I)cc2)C(=O)N2CCC[C@H]2C(=O)N[C@@H](Cc2ccc(Cl)cc2)C(=O)O)C[C@@H]2CCCC[C@@H]21)C(=O)O
B9: apelin polypeptide SEQ ID NO: 227 (peptide)
peptide: Tridecanoyl-[γGlu][AEEA][AEEA]Q[hArg]P[dR][NMeL]SHKG[Oic][Nle]P[dBip]-OH
SMILES: CCCCCCCCCCCCC(=O)N[C@@H](CCC(=O)NCCOCCOCC(=O)NCCOCCOCC(=O)N[C@@H](CCC(N)=O)C(=O)N[C@@H](CCCCNC(=N)N)C(=O)N1CCC[C@H]1C(=O)N[C@H](CCCNC(=N)N)C(=O)N(C)[C@@H](CC(C)C)C(=O)N[C@@H](CO)C(=O)N[C@@H](Cc1c[nH]cn1)C(=O)N[C@@H](CCCCN)C(=O)NCC(=O)N1[C@H](C(=O)N[C@@H](CCCC)C(=O)N2CCC[C@H]2C(=O)N[C@H](Cc2ccc(-c3ccccc3)cc2)C(=O)O)C[C@@H]2CCCC[C@@H]21)C(=O)O

What follows are binders tested against T1, rat APJ receptor (rat, UniProt Q9JHG3 1-377) (assay: cell-based or functional assay).
T1 sequence (looked up): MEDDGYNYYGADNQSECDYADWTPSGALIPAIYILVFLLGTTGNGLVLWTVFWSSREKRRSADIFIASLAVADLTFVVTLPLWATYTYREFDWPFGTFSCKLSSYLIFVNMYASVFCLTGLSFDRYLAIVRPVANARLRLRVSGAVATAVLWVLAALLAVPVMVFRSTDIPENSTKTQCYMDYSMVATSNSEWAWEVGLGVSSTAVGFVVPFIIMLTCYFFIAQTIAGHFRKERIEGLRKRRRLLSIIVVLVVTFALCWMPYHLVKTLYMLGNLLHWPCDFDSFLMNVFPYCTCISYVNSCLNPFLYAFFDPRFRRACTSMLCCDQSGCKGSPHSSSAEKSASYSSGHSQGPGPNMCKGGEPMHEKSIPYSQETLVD

Row | Binder | EC50 Rat APJ Receptor
1 | B1 | 3.29 nM
2 | B2 | 4.89 nM
3 | B3 | 10.3 nM
4 | B4 | 2.27 nM
5 | B5 | 47.9 nM
6 | Heptadecanoyl-[γGlu][AEEA][AEEA][hArg]Q[dR]P[NMeR][Cha]SHKG[Oic][Nle][Pip′][Phe(4-Cl)]-OH [apelin polypeptide SEQ ID NO: 239] | 8.61 nM
7 | B6 | 28.5 nM
8 | B7 | 7.91 nM
9 | Heptadecanoyl-[γGlu][AEEA][AEEA]Q[dR]P[NMeR][Cha]SHKG[Oic][Nle][Pip′][Phe(4-Cl)]-OH [apelin polypeptide SEQ ID NO: 234] | 12.5 nM
10 | Ac-[hArg][hArg][dQ][hArg]P[dR][NMeL]SHKG[Oic][Phe(4-I)]P[dBip]-OH [apelin polypeptide SEQ ID NO: 19] | 0.757 nM
11 | B8 | 91 nM
12 | B9 | 97.5 nM
13 | Ac-[dR][hArg]Q[hArg]P[dR][NMeL]SHKG[Oic][Phe(4-I)]P[dBip]-OH [apelin polypeptide SEQ ID NO: 18] | 0.523 nM

These binders were tested against T2, human APJ receptor (human, UniProt P35414 1-380) (assay: cell-based or functional assay).
T2 sequence (looked up): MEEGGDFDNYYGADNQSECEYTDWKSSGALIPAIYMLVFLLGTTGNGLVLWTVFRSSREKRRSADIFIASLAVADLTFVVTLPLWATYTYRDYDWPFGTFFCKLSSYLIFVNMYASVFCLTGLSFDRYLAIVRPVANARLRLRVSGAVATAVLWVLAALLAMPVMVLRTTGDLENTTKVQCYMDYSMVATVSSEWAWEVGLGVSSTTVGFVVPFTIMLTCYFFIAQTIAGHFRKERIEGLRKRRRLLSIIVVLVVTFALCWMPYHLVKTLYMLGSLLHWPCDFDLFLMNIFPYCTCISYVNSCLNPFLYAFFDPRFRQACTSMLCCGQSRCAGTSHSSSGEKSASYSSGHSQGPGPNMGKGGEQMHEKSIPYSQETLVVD

Row | Binder | EC50 Human APJ Receptor
14 | B1 | 0.235 nM
15 | B2 | 4.96 nM
16 | B3 | 1.19 nM
17 | B4 | 2.19 nM
18 | B5 | 3.02 nM
19 | Heptadecanoyl-[γGlu][AEEA][AEEA][hArg]Q[dR]P[NMeR][Cha]SHKG[Oic][Nle][Pip′][Phe(4-Cl)]-OH [apelin polypeptide SEQ ID NO: 239] | 1.45 nM
20 | B6 | 6.68 nM
21 | B7 | 0.484 nM
22 | Heptadecanoyl-[γGlu][AEEA][AEEA]Q[dR]P[NMeR][Cha]SHKG[Oic][Nle][Pip′][Phe(4-Cl)]-OH [apelin polypeptide SEQ ID NO: 234] | 6.05 nM
23 | Ac-[hArg][hArg][dQ][hArg]P[dR][NMeL]SHKG[Oic][Phe(4-I)]P[dBip]-OH [apelin polypeptide SEQ ID NO: 19] | 0.533 nM
24 | B8 | 20.8 nM
25 | B9 | 8.77 nM
26 | Ac-[dR][hArg]Q[hArg]P[dR][NMeL]SHKG[Oic][Phe(4-I)]P[dBip]-OH [apelin polypeptide SEQ ID NO: 18] | 0.468 nM
